Publication PMC9796789 (The Febs Journal, 2022)
Values belong to the molecule of their own block, whether it stands above or below them.

Legend:
[1] = molecular target: CrtE from Synechococcus elongatus sp. PCC 7942 with a C-terminal His-tag (SeCrtE-His) (Synechococcus elongatus sp. PCC 7942); experiment: crystal structure
[2] = molecular target: T1, SeCrtE (Synechococcus elongatus, UniProt Q31Q61); experiment: LC-MS of prenyl pyrophosphate products; type: biochemical; conditions: 50 µM DMAPP, 100 µM IPP, 10 mM MgCl2, 25 mM MOPSO pH 7.2, 30 °C, 2 h
T1 sequence (Q31Q61 1-301): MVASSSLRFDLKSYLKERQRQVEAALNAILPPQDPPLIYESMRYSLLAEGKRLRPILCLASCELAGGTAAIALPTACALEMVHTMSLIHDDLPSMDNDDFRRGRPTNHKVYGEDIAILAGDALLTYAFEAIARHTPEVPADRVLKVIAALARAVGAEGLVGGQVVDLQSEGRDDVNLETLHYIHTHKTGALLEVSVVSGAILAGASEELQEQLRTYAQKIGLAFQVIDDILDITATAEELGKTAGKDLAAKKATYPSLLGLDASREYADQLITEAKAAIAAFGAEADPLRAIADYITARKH

[3] = molecular target: T2, SyCrtE (Synechocystis sp. PCC 6803, UniProt P72683); experiment: LC-MS of prenyl pyrophosphate products; type: biochemical; conditions: 50 µM DMAPP, 100 µM IPP, 10 mM MgCl2, 25 mM MOPSO pH 7.2, 30 °C, 2 h
T2 sequence (P72683 1-302): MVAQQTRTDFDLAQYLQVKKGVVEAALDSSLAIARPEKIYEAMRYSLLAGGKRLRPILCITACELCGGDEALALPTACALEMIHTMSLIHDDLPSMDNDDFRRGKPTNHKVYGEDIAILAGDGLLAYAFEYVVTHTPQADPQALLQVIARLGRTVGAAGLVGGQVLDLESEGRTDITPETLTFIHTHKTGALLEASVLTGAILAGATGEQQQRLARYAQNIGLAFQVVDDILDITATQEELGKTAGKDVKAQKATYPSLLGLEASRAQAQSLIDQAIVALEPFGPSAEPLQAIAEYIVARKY

[4] = molecular target: the molecule itself; experiment: crystal structure

- stoichiometry N [1]: 2
Molecule: CrtE from Synechococcus elongatus sp. PCC 7942 with a C-terminal His-tag (SeCrtE-His) (enzyme)

Molecule: CC(C)=CCC/C(C)=C/CC/C(C)=C/CC/C(C)=C/COP(=O)(O)OP(=O)(O)O [GGPP]
- LC-MS of prenyl pyrophosphate products [2]: For SeCrtE, only GGPP formation was detected
- LC-MS of prenyl pyrophosphate products [3]: Under identical experimental conditions, SyCrtE produced GGPP, GPP and FPP

B1: CrtE from Synechocystis sp. PCC 6803 with a C-terminal His-tag (SyCrtE-His) (enzyme)
chain: T2 sequence (P72683 1-302)
- stoichiometry N [4]: 2
